US20250019426A1 (UCT BIOSCIENCE, published 2025)

Key:
[1] = target: T1, recombinant GRP78 protein (human, UniProt P11021 19-650, limits assumed); experiment: Biacore SPR, multi-cycle kinetics, GRP78 amine-coupled to the chip, G2D03 as analyte 0.625-10 nM, 1:1 fit, kd/ka
T1 construct: also called HSPA5/GRP78 (Active Protein) Human Protein (ORIGENE, Cat. No. AR03021PU-L); glucose-regulated protein 78
From the text: (§1) This ligand has the optimum pH 4.0 condition for direct immobilization by pH scouting test. With amine coupling method, carboxyl groups on the surface of the sensor chip surface are first activated with a mixture of EDC and NHS to give reactive succinimide esters. GRP78 is then passed over the surface and the esters react with primary amine groups to link the ligand covalently to the dextran matrix. The target level of the GRP78 protein is about 300 RU.
(§2) For the multi-cycle kinetics analysis, the chip surface level is 291.2 RU and the analyte concentration is used for the moderate Rₘₐₓ, which is running through the conditions in the assay. The concentrations of the anti-GRP78 antibody G2D03 are: 0.625 nM, 1.25 nM, 2.5 nM, 5 nM and 10 nM. Set the flow rate at 30 μL/min. Association time is 120 seconds. Dissociation time is 360 seconds. Regeneration buffer is performed using 10 mM glycine-HCl pH 1.7. […] The binding affinity of the anti-GRP78 antibody G2D03 is better than the conventional anti-GRP78 antibody C38.

[2] = target: T1, recombinant GRP78 protein; experiment: Biacore SPR, multi-cycle kinetics, GRP78 amine-coupled to the chip, G2D03 as analyte 0.625-10 nM, 1:1 fit
From the text: as §1, §2

T1 sequence (P11021 19-650 limits assumed): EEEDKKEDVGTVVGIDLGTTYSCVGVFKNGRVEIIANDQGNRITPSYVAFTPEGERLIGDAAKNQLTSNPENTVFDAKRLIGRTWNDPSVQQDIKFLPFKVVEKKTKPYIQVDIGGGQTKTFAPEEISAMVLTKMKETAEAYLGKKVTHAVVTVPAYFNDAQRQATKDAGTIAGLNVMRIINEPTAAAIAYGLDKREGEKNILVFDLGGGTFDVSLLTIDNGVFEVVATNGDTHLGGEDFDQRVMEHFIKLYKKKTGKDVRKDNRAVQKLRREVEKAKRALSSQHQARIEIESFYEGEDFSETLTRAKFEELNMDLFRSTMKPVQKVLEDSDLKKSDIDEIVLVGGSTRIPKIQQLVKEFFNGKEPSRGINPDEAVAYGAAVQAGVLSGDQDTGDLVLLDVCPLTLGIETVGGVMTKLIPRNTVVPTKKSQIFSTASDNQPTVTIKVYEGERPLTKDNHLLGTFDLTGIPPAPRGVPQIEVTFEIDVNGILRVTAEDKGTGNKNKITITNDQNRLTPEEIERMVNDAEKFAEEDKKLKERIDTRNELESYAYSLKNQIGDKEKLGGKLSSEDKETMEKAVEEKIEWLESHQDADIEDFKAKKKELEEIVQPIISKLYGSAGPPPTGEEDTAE

B1: anti-GRP78 antibody G2D03 (antibody, V domains shown)
VH: EVQLVESGGGLVQPGGSLRLSCAASGFTFSQYAMAWVRQAPGKGLEWVSGISPYGSNTRYADSVKGRFTISRDNSKNTLYLQMNSLRAEDTAVYYCARNGGYSYTWFDLWGQGTLVTVSS
VL: DIQMTQSPSSLSASVGDRVTITCRASQSISSDLAWYQQKPGKAPKLLIYWASKLQSGVPSRFSGSGSGTDFTLTISSLQPEDFATYYCMQMYNTPPTFGQGTKVEIKR
notes: Detected with anti-human IgG; also called G2D03 mAb; anti-GRP78 monoclonal antibody (G2D03)
Kd [1]: 0.0744 nM
koff [2]: 0.000254 s⁻¹
kon [2]: 3.42e+06 M⁻¹ s⁻¹
